For four molecules, Kd and fold better binding than to soluble MSLN results are on record in patent US20210380714A1.

Experiment [1] concerns the target recombinant human soluble MSLN (rHuMSLN sol.) (human) (UniProt Q13421). The experiment can be described thus: Biacore, soluble human MSLN. For orientation: Surface plasmon resonance follows binding to a sensor surface in real time, without labels.
Experiment [2] deals with native human MSLN expressed on the cell surface (N87 / NCI-N87 tumor cells) (human) (UniProt Q13421). The experiment can be described thus: KinExA, native hu MSLN on cells.
Chain of native human MSLN expressed on the cell surface (N87 / NCI-N87 tumor cells) (human) (Q13421 296-606 limits assumed): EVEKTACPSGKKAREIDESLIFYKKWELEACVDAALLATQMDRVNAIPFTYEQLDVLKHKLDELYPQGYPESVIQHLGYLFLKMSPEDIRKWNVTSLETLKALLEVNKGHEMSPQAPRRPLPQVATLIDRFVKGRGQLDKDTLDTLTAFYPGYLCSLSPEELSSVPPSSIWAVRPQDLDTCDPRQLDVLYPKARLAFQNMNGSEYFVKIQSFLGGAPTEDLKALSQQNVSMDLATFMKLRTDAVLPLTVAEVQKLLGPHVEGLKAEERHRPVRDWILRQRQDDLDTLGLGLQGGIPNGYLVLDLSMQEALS
Experiment [3] has the same target. The experiment can be described thus: KinExA on N87 cells compared with Biacore on rHuMSLN sol.
For experiment [4], the target named is recombinant human soluble MSLN (rHuMSLN sol.) (human) (UniProt Q13421). Description: Biacore; 237 captured on the sensor chip, rHuMSLN sol. in solution.
Chain of recombinant human soluble MSLN (rHuMSLN sol.) (human) (Q13421 296-606 limits assumed): as above
Experiment [5] concerns the target native human MSLN expressed on the cell surface (N87 / NCI-N87 tumor cells) (human) (UniProt Q13421). Description: KinExA equilibrium binding to N87 tumor cells expressing native human MSLN. Background: In KinExA the mixture passes briefly over coated beads that capture the unbound partner.

B1: 1.33.1 (antibody, V domains shown)
VH: QVQLQESGPGLVKPSQTLSLTCTVSGGSISGDGHFWSWIRQHPGKGLEWIGYIYYSGSTYYNPSLKSRVTISVDTSKNQFSLKLSSVTAADTAVYYCARLRGGYKFDYWGQGTLVTVSS
VL: DIVMTQTPLSLSVAPGQPASISCQSSLSLQHSNGKTYLYWYLQKPGQPPQLLIYEVSNRFSGVPDRFSGSGSGTDFTLKISRVEAEDVGIYYCMQSKQLPCSFGQGTKLEIK
For orientation: Kd means the free concentration of one partner at which half of the binding sites on the other are occupied at equilibrium, for simple one-to-one binding. On to B1, for which the Kd in experiment [1] worked out at 965 pM.

B2: 158.3 (antibody, V domains shown)
VH: QVQLQESGPGLVKPSETLSLTCTVSGGSIISHYWSWIRQPPGKGLEWIGYIYYSGSTNYNPSLKSRVTISVDTSKNQFSLKLTSVTAADTAVYYCARDGWSAFDYWGQGTLVTVSS
VL: DIQMTQSPSSLSASVGDRVTITCRASQGIRNALGWYQQKPGKAPKRLIYAASSLQSGVPSRFSGSGSGTEFTLTISSLQPEDFATYYCLQHNSYPRTFGQGTKVEIRR
Consider B2, for which the Kd in experiment [1] was determined as 2400 pM; in experiment [2] it was 12.2 pM.

B3: 151 (antibody, V domains shown)
VH: QVQLQESGPGLVKPSETLSLTCTVSGGSISSYYWSWIRQPPGKGLEWIGYIYYSGSTNYNPSLKSRVTISVDTSKNQFSLKLSSVTAADTAVYYCARVDYKAFDIWGQGTMVTVSS
VL: DIQMTQSPSSLSASVGDRVTITCRASQGIRNDLHWYQQKPGKAPKRLIYAASSLQSGVPSRFSGSGSGTEFTLTISSLQPEDFATYYCLQHYSYPWTFGQGTKVEIK
Regarding B3, the Kd is 17400 pM in experiment [1] and 30 pM in experiment [2].

B4: Ab237 (Hu-anti-huMesothelin-2.37-IgG1) (antibody, V domains shown)
VH: QVQLQESGPGLVKPSQTLSLTCTVSGGSINNNNYYWTWIRQHPGKGLEWIGYIYYSGSTFYNPSLKSRVTISVDTSKTQFSLKLSSVTAADTAVYYCAREDTMTGLDVWGQGTTVTVSS
VL: DIQMTQSPSSLSASVGDRVTITCRASQSINNYLNWYQQKPGKAPTLLIYAASSLQSGVPSRFSGSRSGTDFTLTISSLQPEDFAAYFCQQTYSNPTFGQGTKVEVK
Molecule B4 yielded a fold better binding than to soluble MSLN in experiment [3] of 30 fold. In addition, the values for the Kd in experiment [4] and in experiment [5] were 97 pM and 3.5 pM, respectively.
